Results on two molecules are retold here after paper PMC2198822 (The Journal of Cell Biology, 2001).

The labels stand for the following.
B2: recombinant mouse vimentin, bacterially expressed and purified (natural protein)
chain: not shown

Assay [1] addresses B2. Briefly: far-Western, overlay or dot blot.
Assay [2] addresses T1, formiminotransferase cyclodeaminase (FTCD), bacterially expressed and purified (rat, UniProt O88618 1-541).
T1 sequence (looked up): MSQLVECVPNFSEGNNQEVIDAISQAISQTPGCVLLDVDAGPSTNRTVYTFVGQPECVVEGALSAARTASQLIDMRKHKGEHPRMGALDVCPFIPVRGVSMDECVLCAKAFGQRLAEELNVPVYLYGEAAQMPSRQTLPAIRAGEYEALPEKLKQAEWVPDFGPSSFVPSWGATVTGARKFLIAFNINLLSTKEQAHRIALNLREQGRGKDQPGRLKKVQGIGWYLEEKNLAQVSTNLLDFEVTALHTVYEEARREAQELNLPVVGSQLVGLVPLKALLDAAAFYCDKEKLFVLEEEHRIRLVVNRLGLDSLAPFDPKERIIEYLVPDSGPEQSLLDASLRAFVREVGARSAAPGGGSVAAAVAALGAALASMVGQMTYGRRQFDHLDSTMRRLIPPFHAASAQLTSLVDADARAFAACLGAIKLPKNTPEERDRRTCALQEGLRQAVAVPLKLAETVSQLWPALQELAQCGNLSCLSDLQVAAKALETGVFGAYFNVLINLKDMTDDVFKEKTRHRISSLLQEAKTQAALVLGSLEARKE
Nature of the assay: far-Western, overlay or dot blot.

The target of assay [3] is T1, formiminotransferase cyclodeaminase …. Nature of the assay: co-sedimentation.

B1: 35S-radiolabeled FTCD generated in vitro by coupled transcription/translation (enzyme, UniProt O88618 1-541, looked up)
chain: MSQLVECVPNFSEGNNQEVIDAISQAISQTPGCVLLDVDAGPSTNRTVYTFVGQPECVVEGALSAARTASQLIDMRKHKGEHPRMGALDVCPFIPVRGVSMDECVLCAKAFGQRLAEELNVPVYLYGEAAQMPSRQTLPAIRAGEYEALPEKLKQAEWVPDFGPSSFVPSWGATVTGARKFLIAFNINLLSTKEQAHRIALNLREQGRGKDQPGRLKKVQGIGWYLEEKNLAQVSTNLLDFEVTALHTVYEEARREAQELNLPVVGSQLVGLVPLKALLDAAAFYCDKEKLFVLEEEHRIRLVVNRLGLDSLAPFDPKERIIEYLVPDSGPEQSLLDASLRAFVREVGARSAAPGGGSVAAAVAALGAALASMVGQMTYGRRQFDHLDSTMRRLIPPFHAASAQLTSLVDADARAFAACLGAIKLPKNTPEERDRRTCALQEGLRQAVAVPLKLAETVSQLWPALQELAQCGNLSCLSDLQVAAKALETGVFGAYFNVLINLKDMTDDVFKEKTRHRISSLLQEAKTQAALVLGSLEARKE
modifications: [35S]methionine and [35S]cysteine label
Turning to B1, the “fold bound relative to BSA” value is around 10 fold in assay [1] and around 6 fold in assay [2].

With B2, the binding result in assay [3] is reported as “binds”.
